Assay results taken from publication PMC11046469, “Leveraging a Phage-Encoded Noncanonical Amino Acid: A Novel Pathway to Potent and Selective Epigenetic Reader Protein Inhibitors” (ACS Central Science, 2024).

target: T1, ENL YEATS domain (AviSUMO-ENL YEATS) (Homo sapiens, UniProt Q03111); assay: Phage panning of BuK-containing 7-mer library against AviSUMO-ENL YEATS with Illumina NGS abundance; conditions: sheet ENLR3: round 3 of panning against ENL YEATS; TAG = amber codon (BuK); 7-mer library positions V1-V7
T1 construct: encoding ENL YEATS (aa 1−148) was cloned in pET28a-; made in house; host or cells: E. coli BL21(DE3pLysS), co-expressed with BirA (pBirAcm)
T1 sequence (Q03111 1-148): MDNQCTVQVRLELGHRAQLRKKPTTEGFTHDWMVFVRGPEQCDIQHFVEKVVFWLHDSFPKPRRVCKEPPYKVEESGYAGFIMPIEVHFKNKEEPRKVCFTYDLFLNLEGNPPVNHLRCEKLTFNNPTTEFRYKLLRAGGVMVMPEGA
From the text: We utilized a previously established amber-obligate 7-mer phage display library to develop a phage display library enriched with BuK-containing 7-mer peptides. For detailed characterizations, including analysis of amber codon percentages, NNK trinucleotide analysis, and amino acid distribution at each position within the library, please refer to the work of Tharp et al.[10] Furthermore, the comprehensive raw NGS data for the amber-obligate 7-mer phage library can be found in the NCBI’s Sequence Read Archive, under the accession ID PRJNA606283. To produce the BuK-containing 7-mer phage library, the phages were produced in the presence of 5 mM BuK using TOP10 cells harboring the following three plasmids: (1) pADL-gIII, which contains the 7-mer amber-obligate peptide-coding DNA library positioned at the N-terminus of M13 pIII gene; (2) pCDF-BuKRS, which encodes BuKRS and its cognate tRNA^Pyl for the genetic incorporation of BuK at amber codons in the 7-mer library; and (3) M13KO7TAA, a helper phage plasmid engineered to have a TAA mutation at pIII so that its lack of a functional pIII allows an efficient multivalent display of the 7-mer library. The ENL YEATS domain containing an N-terminal AviSUMO-Tag was recombinantly expressed in E. coli together with BirA, a biotin ligase, for site-specific biotinylation at the AviTag. The biotinylated AviSUMO-ENL YEATS was immobilized on streptavidin-coated magnetic beads for panning with the BuK-containing phages. […] Phage libraries collected from the first and third rounds of selection were sequenced using Illumina next generation sequencing (NGS) and all sequenced data are available through the NCBI SRA database (Project PRJNA1041845). To prevent possible sequencing errors from affecting conclusions, sequences were filtered using previously published paired-end processing,[10] where any sequences containing more than one mismatch in the nonlibrary region or any mismatch in the library region were discarded. The NGS data provided DNA sequences encompassing both the library and nonlibrary regions. In our analysis, we included data from the nonlibrary region as a stringent quality control measure to filter out low-quality data. For our analysis, we utilized 51 nucleotides from the NGS output, with 21 nucleotides encoding the library region and an additional 30 nucleotides for the nonlibrary region. […] Among all the sequences, only 85 of them contained more than 100 copies (blue area), while the remaining sequences all had low abundances (<10^2 copies, dark and light gray areas), which constituted 85.2% of the first round population. After three panning rounds, the selection converged to two highly enriched sequences: YDVYCYX (ENL-S1) and WWIIEXG (ENL-S2, X denotes BuK). Out of 551 different unique sequences collected from the third round, ENL-S1 and ENL-S2 represented 85% of the entire library (Figure 2A and Figures S6–S8). Both peptide sequences corresponded to their own unique DNA sequence, rather than there being varying codons encoding the same amino acids (Figure S7). […] Two motifs were found in the majority of sequences with high abundance (greater than 0.1%) (Figure S6). A Y(C/L)Y pattern was identified in the residues adjacent to BuK in four of the eight top sequences. Also, an H(L/Y)(T/V)LFXG (X denotes BuK) motif was observed, albeit at lower abundances, in two of the top sequences. In the initial round of selection, we observed that only a small percentage of phages were eluted, which aligns with typical outcomes in phage selection experiments since only a low copy number of phages can bind to the target.[10],[45] With each successive round of selection, we noted a gradual increase in the percentage of phages eluted. This incremental, rather than sharp, increase was attributed to the intensification of selection pressures, such as the application of more stringent washing protocols. We aimed for the incremental increase to retain potent clones with low copy numbers from the previous selection cycle. […]

Row | Substance | n (number of NGS reads of the unique amino acid sequence) | percent (share of sequence reads) [%]
1 | LTAGMPRSF | 1 | 0.0009106
2 | NCPTAGFNL | 1 | 0.0009106
3 | YDVYCYTAG | 60611 | 55.1932
4 | YVVYCYTAG | 4 | 0.003642
5 | YGVYCYTAG | 13 | 0.01184
6 | YNVYCYTAG | 10 | 0.009106
7 | QRGPRTAGD | 2 | 0.001821
8 | LTAGTVLDP | 1 | 0.0009106
9 | HMTLFTAGG | 1 | 0.0009106
10 | WNCLYTAGD | 4 | 0.003642
11 | HAIYFYTAG | 1 | 0.0009106
12 | LFIALPTAG | 1 | 0.0009106
13 | YHVYCYTAG | 2 | 0.001821
14 | HSIYCYTAG | 1 | 0.0009106
15 | YDVYCYL | 2 | 0.001821
16 | CCWTAGGGN | 2 | 0.001821
17 | YDAYCYTAG | 11 | 0.01002
18 | CHMLCTAGD | 56 | 0.05099
19 | CTYVITAGV | 1 | 0.0009106
20 | WWIIETAGV | 16 | 0.01457

Row | Substance | n (number of NGS reads of the unique amino acid sequence) | percent (share of sequence reads) [%]
21 | VYCYTAGVW | 3 | 0.002732
22 | SWIIETAGG | 5 | 0.004553
23 | QFGPRTAGD | 6 | 0.005464
24 | QCGPWTAGD | 4 | 0.003642
25 | YDVHCYTAG | 5 | 0.004553
26 | ILIYTAGGD | 4 | 0.003642
27 | WRIIETAGG | 9 | 0.008196
28 | YLYTAGFPC | 5 | 0.004553
29 | YDVYCTAGTAG | 3 | 0.002732
30 | NAIYCYTAG | 1 | 0.0009106
31 | CFFTAGIMC | 1 | 0.0009106
32 | WCIIETAGG | 19 | 0.0173
33 | WQDTTAGTY | 2 | 0.001821
34 | ILATAGSVN | 1 | 0.0009106
35 | TAGCGPRTAGD | 3 | 0.002732
36 | HYFLFTAGG | 1 | 0.0009106
37 | IGSIHYTAG | 1 | 0.0009106
38 | FTWSTAGED | 1 | 0.0009106
39 | YVGPWTAGG | 41 | 0.03734

same assay, conditions: sheet ENLR3: round 3 of selection against ENL YEATS; TAG = amber codon (BuK)

Row | Substance | n (number of NGS reads of the 7-mer sequence V1-V7) | percent (share of NGS reads of the 7-mer sequence V1-V7) [%]
40 | TAGNVCGTV | 1 | 0.0009106
41 | WWILETAGG | 1 | 0.0009106
42 | SLYITFTAG | 1 | 0.0009106
43 | TAGSSIITC | 1 | 0.0009106
44 | SAVVATAGG | 1 | 0.0009106
45 | WWIFETAGG | 1 | 0.0009106
46 | RCGPRTAGD | 1 | 0.0009106
47 | VWVSTAGMT | 1 | 0.0009106
48 | YVCPWTAGG | 1 | 0.0009106
49 | WWFIETAGG | 1 | 0.0009106
50 | NYVLFTAGG | 1 | 0.0009106
51 | QCGPRWD | 1 | 0.0009106
52 | QCSPRTAGD | 1 | 0.0009106
53 | YLYTAGAPC | 1 | 0.0009106
54 | TAGKDQLWN | 1 | 0.0009106
